The target in experiment [1] is SK2aG88‐Pm complex (streptokinase of group G Streptococcus G88 with plasmin) (group G Streptococcus (GGS) strain G88 | human).
Experiment [2] has as its target SK2bALAB49‐Pm complex (streptokinase of group A Streptococcus ALAB49 with plasmin) (group A Streptococcus (GAS) strain ALAB49 | human).
Experiment [3] addresses SKC1 (2aG88‐2b_(ALAB)‐2aG88)‐Pm complex (group G Streptococcus (GGS) strain G88 | group A Streptococcus (GAS) strain ALAB49 | human).
Experiment [4] deals with SKC2 (2b_(ALAB)‐2aG88‐2b_(ALAB))‐Pm complex (group A Streptococcus (GAS) strain ALAB49 | group G Streptococcus (GGS) strain G88 | human).
The target in experiment [5] is SK2aG88‐Pm complex (streptokinase of group G Streptococcus G88 with plasmin) (group G Streptococcus (GGS) strain G88 | human). The source holds these as a separate data set.
Experiment [6] deals with SK2bALAB49‐Pm complex (streptokinase of group A Streptococcus ALAB49 with plasmin) (group A Streptococcus (GAS) strain ALAB49 | human). This is another data set of the same source.
For experiment [7], the target named is SKC1 (2aG88‐2b_(ALAB)‐2aG88)‐Pm complex (group G Streptococcus (GGS) strain G88 | group A Streptococcus (GAS) strain ALAB49 | human). This is another data set of the same source.
Experiment [8] deals with SKC2 (2b_(ALAB)‐2aG88‐2b_(ALAB))‐Pm complex (group A Streptococcus (GAS) strain ALAB49 | group G Streptococcus (GGS) strain G88 | human). The source holds these as a separate data set.

For two molecules, K m of the proteolytic activity (substrate affinity): 100 nM SK, Pg 0.3–5.0 µM as substrate, 0.1 mM S2251, absorbance and retained activity (S‐2251 hydrolysis) of the SK‐Pm complex (20 nM) after 15 min with α2‐AP 100–400 nM, relative to no inhibitor; value results are on record in paper PMC6609762.

In the case of plasminogen (natural protein), the K m of the proteolytic activity (substrate affinity): 100 nM SK, Pg 0.3–5.0 µM as substrate, 0.1 mM S2251, absorbance at 405 nM in experiment [1] amounted to 0.77 µM; in experiment [2], 7.92 µM; in experiment [3] it was 2.05 µM; in experiment [4], 3.45 µM.

B1: alpha 2‐antiplasmin (natural protein)
chain: NQEQVSPLTLLKLGNQEPGGQTALKSPPGVCSRDPTPEQTHRLARAMMAFTADLFSLVAQTSTCPNLILSPLSVALALSHLALGAQNHTLQRLQQVLHAGSGPCLPHLLSRLCQDLGPGAFRLAARMYLQKGFPIKEDFLEQSEQLFGAKPVSLTGKQEDDLANINQWVKEATEGKIQEFLSGLPEDTVLLLLNAIHFQGFWRNKFDPSLTQRDSFHLDEQFTVPVEMMQARTYPLRWFLLEQPEIQVAHFPFKNNMSFVVLVPTHFEWNVSQVLANLSWDTLHPPLVWERPTKVRLPKLYLKHQMDLVATLSQLGLQELFQAPDLRGISEQSLVVSGVQHQSTLELSEVGVEAAAATSIAMSRMSLSSFSVNRPFLFFIFEDTTGLPLFVGSVRNPNPSAPRELKEQQDSPGNKDFLQSLKGFPRGDKLFGPDLKLVPPMEEDYPQFGSPK
Turning to B1, the retained activity (S‐2251 hydrolysis) of the SK‐Pm complex (20 nM) after 15 min with α2‐AP 100–400 nM, relative to no inhibitor; value at 400 nM in experiment [5] was found to be 80%; in experiment [6], 50%; in experiment [7], 50%; in experiment [8], 80%.
